Measured values as given in doi:10.1101/2025.11.22.689938 (bioRxiv, 2025).

Molecular target: HA-JMJD5 (wildtype, pEF6) (human, UniProt Q8N371 1-416)
Experiment: co-IP

Chain of HA-JMJD5 (wildtype, pEF6) (Q8N371 whole entry): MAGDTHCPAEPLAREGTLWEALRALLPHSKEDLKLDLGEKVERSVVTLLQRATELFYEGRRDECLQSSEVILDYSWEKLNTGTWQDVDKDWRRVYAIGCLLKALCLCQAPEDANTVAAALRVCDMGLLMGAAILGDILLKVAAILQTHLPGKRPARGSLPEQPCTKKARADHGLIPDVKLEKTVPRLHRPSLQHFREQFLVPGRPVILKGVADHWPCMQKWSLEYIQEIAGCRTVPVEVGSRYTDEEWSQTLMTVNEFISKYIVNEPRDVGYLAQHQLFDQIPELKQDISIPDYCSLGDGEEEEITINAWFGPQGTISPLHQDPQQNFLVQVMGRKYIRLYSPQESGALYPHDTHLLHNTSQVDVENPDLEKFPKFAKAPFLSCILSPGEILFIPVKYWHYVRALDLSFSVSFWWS

binding result: binds
B1: RCCD1-FLAG (wildtype, pIHZ) (natural protein)
chain: MAEERPGAWFGFGFCGFGQELGSGRGRQVHSPSPLRAGVDICRVSASWSYTAFVTRGGRLELSGSASGAAGRCKDAWASEGLLAVLRAGPGPEALLQVWAAESALRGEPLWAQNVVPEAEGEDDPAGEAQAGRLPLLPCARAYVSPRAPFYRPLAPELRARQLELGAEHALLLDAAGQVFSWGGGRHGQLGHGTLEAELEPRLLEALQGLVMAEVAAGGWHSVCVSETGDIYIWGWNESGQLALPTRNLAEDGETVAREATELNEDGSQVKRTGGAEDGAPAPFIAVQPFPALLDLPMGSDAVKASCGSRHTAVVTRTGELYTWGWGKYGQLGHEDTTSLDRPRRVEYFVDKQLQVKAVTCGPWNTYVYAVEKGKS
